Measured values as given in article doi:10.1101/343046 (bioRxiv, 2018).

Molecular target: T1, GST-KBP (Kinesin-Binding Protein) (human, UniProt Q96EK5 1-621)
T1 sequence (looked up): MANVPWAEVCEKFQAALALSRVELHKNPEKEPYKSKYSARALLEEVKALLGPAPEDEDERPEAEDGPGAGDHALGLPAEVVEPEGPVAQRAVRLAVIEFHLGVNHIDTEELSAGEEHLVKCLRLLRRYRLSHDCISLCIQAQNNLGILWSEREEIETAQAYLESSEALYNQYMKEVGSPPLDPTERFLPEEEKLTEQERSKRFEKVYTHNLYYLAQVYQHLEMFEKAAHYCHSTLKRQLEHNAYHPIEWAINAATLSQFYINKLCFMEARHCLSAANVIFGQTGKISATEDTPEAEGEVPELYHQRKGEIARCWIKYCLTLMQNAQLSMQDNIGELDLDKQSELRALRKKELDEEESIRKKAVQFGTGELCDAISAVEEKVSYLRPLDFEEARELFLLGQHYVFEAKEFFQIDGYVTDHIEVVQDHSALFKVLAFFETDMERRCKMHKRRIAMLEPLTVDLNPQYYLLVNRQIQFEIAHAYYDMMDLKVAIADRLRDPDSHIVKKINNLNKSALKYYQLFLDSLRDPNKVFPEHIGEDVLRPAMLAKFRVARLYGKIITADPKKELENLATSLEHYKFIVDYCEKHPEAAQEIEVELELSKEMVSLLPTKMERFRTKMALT
Assay: pull-down

B1: KIF18A-N480-GFP-His6 (domain or fragment, human, UniProt Q8NI77 1-480, looked up)
chain: MSVTEEDLCHHMKVVVRVRPENTKEKAAGFHKVVHVVDKHILVFDPKQEEVSFFHGKKTTNQNVIKKQNKDLKFVFDAVFDETSTQSEVFEHTTKPILRSFLNGYNCTVLAYGATGAGKTHTMLGSADEPGVMYLTMLHLYKCMDEIKEEKICSTAVSYLEVYNEQIRDLLVNSGPLAVREDTQKGVVVHGLTLHQPKSSEEILHLLDNGNKNRTQHPTDMNATSSRSHAVFQIYLRQQDKTASINQNVRIAKMSLIDLAGSERASTSGAKGTRFVEGTNINRSLLALGNVINALADSKRKNQHIPYRNSKLTRLLKDSLGGNCQTIMIAAVSPSSVFYDDTYNTLKYANRAKDIKSSLKSNVLNVNNHITQYVKICNEQKAEILLLKEKLKAYEEQKAFTNENDQAKLMISNPQEKEIERFQEILNCLFQNREEIRQEYLKLEMLLKENELKSFYQQQCHKQIEMMCSEDKVEKATGKR
- binding result: binds

B2: His6-KIF15-N420 (domain or fragment, human, UniProt Q9NS87 1-420, looked up)
chain: MAPGCKTELRSVTNGQSNQPSNEGDAIKVFVRIRPPAERSGSADGEQNLCLSVLSSTSLRLHSNPEPKTFTFDHVADVDTTQESVFATVAKSIVESCMSGYNGTIFAYGQTGSGKTFTMMGPSESDNFSHNLRGVIPRSFEYLFSLIDREKEKAGAGKSFLCKCSFIEIYNEQIYDLLDSASAGLYLREHIKKGVFVVGAVEQVVTSAAEAYQVLSGGWRNRRVASTSMNRESSRSHAVFTITIESMEKSNEIVNIRTSLLNLVDLAGSERQKDTHAEGMRLKEAGNINRSLSCLGQVITALVDVGNGKQRHVCYRDSKLTFLLRDSLGGNAKTAIIANVHPGSRCFGETLSTLNFAQRAKLIKNKAVVNEDTQGNVSQLQAEVKRLKEQLAELASGQTPPESFLTRDKKKTNYMEYFQE
- binding result: binds
